The text below walks through data of patent US20120114665A1.

pIC50: −log10 of the molar value.

In the assay the target is T1, penta-his-tagged hRANKL (human).
T1 sequence: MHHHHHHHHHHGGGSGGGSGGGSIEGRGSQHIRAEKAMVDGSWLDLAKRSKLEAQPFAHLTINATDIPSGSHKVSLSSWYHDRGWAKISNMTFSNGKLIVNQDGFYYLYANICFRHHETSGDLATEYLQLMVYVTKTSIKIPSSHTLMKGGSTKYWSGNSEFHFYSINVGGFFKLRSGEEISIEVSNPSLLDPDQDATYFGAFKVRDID
The experiment in a line: competition ELISA: 150 pM his-hRANKL pre-mixed with antibody, free RANKL detected on hRANK-hFc plate.

Chain of Control: Human anti-hRANKL mAb, SEQ ID NO: 2 and 4 of U.S. Pat. No. 7,364,736 (antibody) (VH): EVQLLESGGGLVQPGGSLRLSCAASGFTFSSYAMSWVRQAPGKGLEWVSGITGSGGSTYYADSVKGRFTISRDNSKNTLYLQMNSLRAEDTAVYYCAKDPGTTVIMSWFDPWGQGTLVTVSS
Chain of Control: Human anti-hRANKL mAb, SEQ ID NO: 2 and 4 of U.S. Pat. No. 7,364,736 (antibody) (VL): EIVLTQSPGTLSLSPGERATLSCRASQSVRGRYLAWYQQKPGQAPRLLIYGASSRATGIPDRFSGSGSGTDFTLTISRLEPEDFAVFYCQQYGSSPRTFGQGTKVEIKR

For the substance “Control: Human anti-hRANKL mAb, SEQ ID NO: 2 and 4 of U.S. Pat. No. 7,364,736 (antibody)”, the pIC50 is 10.02.
